This is an account of results in US6153580.

Bounds are passed on as bounds.

In the experiment the target is β-casein.

Hin47 Ser-197→alanine analog (enzyme): the protease activity on the substrate β-casein is below 10%.
